{"source": "paper PMC7895871", "about": "(Protein & Cell, 2020)", "proteins": {"B1": {"name": "MCU (mitochondrial calcium uniporter), subunit of the human MCU-EMRE-MICU1-MICU2 supercomplex (MEMMS) (natural protein)", "chain": "DDVTVVYQNGLPVISVRLPSRRERCQFTLKPISDSVGVFLRQLQEEDRGIDRVAIYSPDGVRVAASTGIDLLLLDDFKLVINDLTYHVRPPKRDLLSHENAATLNDVKTLVQQLYTTLCIEQHQLNKERELIERLEDLKEQLAPLEKVRIEISRKAEKRTTLVLWGGLAYMATQFGILARLTWWEYSWDIMEPVTYFITYGSAMAMYAYFVMTRQEYVYPEARDRQYLLFFHKGAKKSRFDLEKYNQLKDAIAQAEMDLKRLRDPLQVHLPLRQIG", "notes": "MCU, human; pore-forming subunit with NTD, CCD and TMD; Four MCU subunits form one channel (tetramer); the supercomplex holds two such tetramers joined at the NTDs; Construct limits and any tags are in the supplementary Methods; source: HEK 293F cells transfected by BacMam viruses, co-expressed; complex pulled down by the C-terminally Strep-tagged EMRE"}}, "molecular_target": "the molecule itself", "assay": "cryo-EM structure; human MCU-EMRE-MICU1-MICU2 supercomplex co-expressed in HEK 293F, pulled down by C-terminally Strep-tagged EMRE; Titan Krios, K2; overall map 3.3–3.7 Å", "data": [{"protein": "B1", "values": [{"measurement": "stoichiometry N", "result": 4}]}]}
